The DeepSol protein solubility set

Assay: soluble on expression in E. coli; label from the status in PepcDB or PDB records

Sequence	soluble on expression in E. coli
MAHHHHHHMVDRIEATLNRLIAFGPGTASYTDDAAFLQNVASAMEVAGEIPVLTEACMSLSVDLLENSSPQSAATHAVLTLLACCCMRDDNRELASRFGIFSLCVLLLRSSELLCKDTLLTIFDLIGTLCMSSASTRQMMRPCIPYVLGVMRTHPDCFQLCFSGAVVIGTLVMLDAANAELAAENDCVQILLTAFMRGHDKRKELLNRRRTSYSLRCQREEDESRRLCDNVIRWTEDALQKLVLAPSPVIDAKLEAADFGNYGDRVEVDELMWKLKFGRGKM	not soluble
MAHHHHHHMVELTEEEAMNFLNIALGEAEKSLQKELKEMPIFCLLINEEKKIISSSYNYTNESKNGSRHSELIAIDKYIYDGNYEQMKNLNLIKCYNNNENSIEKSIQDYFVSLDEKKNSELKINNYENINDKYMNEKYNKIQERINNLKKCCIVVTCEPCIMCVYALKLIGIKNIYFCCLNERFGGCGSVLSLHKKYEDINVHYIEHPECSEKSINLMKAFYKAGNPSAPEEKRKRPIS	not soluble
MAHHHHHHMVLLKILKKIKDNKRNLRILILGLDNAGKTTIIKRLLGEDIYSVSPTFGFNIETLEFGNNILNIWDIGGQKSIRHFWKNYYEDVDGIIFVVDSTDLFRLQLCSFELKQILKEERLYGSTLLILSNKVDIDKSLTINQIVEILKLNEMNMDRHWCINECSAFSGKGLLKSFMWLIDDITDRIDS	not soluble
MAHHHHHHMVLLWVDAEQYGVASSLGLSDDAKYPAFVIARGEDHFVHPSTEPVTAESIEKFIIEYSEKKLSPEIKSQPVPEIETVEGLTTVVGKTLDKYLSSGKDMLIEFFAPWCGHCKNLAPIYAKVAKEFESSDVIIAAMDATANQVDNSLFDVSGFPTIYFVPHGGKPIVYDGGRTFYEIYKFVHEHSSTLKDVPIPEEVKREEEKNGDYDDL	soluble
MAHHHHHHMVSASPPQRDRGSPPTRPLSEPQDVDAPAAGTVQALRQAVEAQEACVRLLRARQAAREALLRHTRRLLTADDSIEWPGSVEQLVRQVEASLHKLQQAHSEAAAPAATTADNVAPTSAPSRSPRNAAGDADPSADPLARIFHSGVEAQLAAVAEPPHTLPASTLASRSSTAKRRKEAGESGLTNAVSTTSPPPGGPFPPRSAAMTALLARSASRQEAGHAAMLAALSALELSLMSNSGATEVGRDVHNAEPAWLRQVDSDSANDDDAAPEEQQQEKEGNRGDIASSDYSDDFECGSSTSSGADD	not soluble
MAHHHHHHMVVSTGEFDHPPFQFRQRHTFNTTPLHDANRFGGRTAYLREIGPVNIKKQGRRFKKDPRTVQFNVDVWCAQQTLRKRWKQRDWEVIEIPFRLVPREQQRVIPELYTDIPQMTDPARNDFSNIRNKVYDREELQGVLFPAAGTMLYPPLQRVDKQAMTLDKYL	not soluble
MAHHHHHHMWTAPPSLRTVRPIFLPLNVVANSTSSLLLHPGQLDLKHVEGYMTSKKWLSKLKCCGDNPLTVDEMKALVLMFLKKISDTYVDDQAKWMNKMRSSQEEQGKALEEAMNEYEKNILFNHALKEQQLLHNNKKISEWNETIENAYEAQQEVLRQFEAKKREDKKKMALEKNNELIIAKDYIDKIKEAATDSRYANSKCFVYPASSAPCGACTSAGAIAPYRRFKEPRRKKQYSLCL	not soluble
MAHHHHHHMYLHLIKNSTAKTPQLYTAKDNSKTAMHLLTRRAANANYTVNRWYLKEKVDSSNRMRLEGLYECVLCASCTGSCPQYWWNREHFLGPAVLLQSYRWLVEPLDRDFDERVRMFETGNLVNMCHNIFNCSITCPKFLNPGLASKEIKRLSSPSTKRVGPAIEMEPVTSGKEAGKRSLLQRL	soluble
MAHHHHHHMYSQRLSRVSPYLSNGSLSPRRFYEMLRRYATENLRDNFVQMQYREALLRLSRRDYWHWMGLRYGTLLFFPYGPRPEQTDNIPDWRHDEKIVQKWCAGLTGVPFADAAMRELLTTGFVAHEGRQALAWLLTRGYGQDWRLGAEWLERCSLDYDPFLCYGNFAYFSELILDDFGEPVRSVHWLAHHHDQTGIYVKKWLPLLSKIPPVYIHRPHVLTPRMQAMHGVRLGKTYPYPLKLWDGAQYMLGSDELTTYFDDSSAWHRKTKSGAGGPGHAEALRHGKAIMKVREWNAAILPEEVAQRPWAHHLPASAFESSEDEVETLQMRQRNQNQPTRHGQLSL	not soluble
MAHHHHHHSLEYNLTTTDVVMENVTAFWEEGFSKLFEKAKENNNNRKISNCDTSLFFSNLLLGTPVLKDISFKIERGQLLAVAGSTGAGKTSLLMMIMGELEPSEGKIKHSGRISFCSQYSWIMPGTIKDNIIFGVSYDEYRYRSVIKACQLEEDISKFSEKDNIVLGEGGITLSGGQRARISLARAVYKDADLYLLDSPFGYLDVLTEKEIFESCVCKLMANKTRILVTSKMEHLKKADKILILHEGSVYFYGTFSELQNQRPDFSSKLMGCDTFDQFTAERRNSIITETLRRFSLEGDTSV	soluble
MAHHHHHHSLITTYKTITSSTQAEFKDKGSRFIAFAYPIRTLADVKKYLDPLKEEHHKARHWCYAYRLGVDGMQFRANDDGEPSGSAGRPILGQIDSVGITDVLVVVVRYFGGTLLGVPGLIHAYKEATAQALAVAEVVEKNIEKTVWLKCEYPFLNEAIRIAKQYQADILERDLQLDCRLTVSLSLVNYEACVAAWKNTRQIEVNTEKPFEEG	soluble
MAHHHHHHSLSFSCPLCHQPLSREKNSYICPQRHQFDMAKEGYVNLLPVQHKRSRDPGDSAEMMQARRAFLDAGHYQPLRDAIVAQLRERLDDKATAVLDIGCGEGYYTHAFADALPEITTFGLDVSKVAIKAAAKRYPQVTFCVASSHRLPFSDTSMDAIIRIYAPCKAEELARVVKPGGWVITATPGPRHLMELKGLIYNEVHLHAPHAEQLEGFTLQQSAELCYPMRLRGDEAVALLQMTPFAWRAKPEVWQTLAAKEVFDCQTDFNIHLWQRSYEG	soluble
MAHHHHHHVDDDDKPGPALYEENALKGKIDDPNSYVPDAVQEAYKNLDSTSTLTEENFGKPYISAKDLKEIMYDHLPGFGTAFHQLVQVICKIGKDNNLLDTIHAEFQASLADGDSPQCALIQITKRVPIFQDVPPPIIHIRSRGDIPRACQKSLRPAPPSPKIDRGWVCLFKMQDGKTLGLKI	soluble
MAHLQYRDGDWYLHASMRKVEAGEGTSESESKHRTVLGVDLGVNNLAVASTGRFWSAGEFNHWRREYEKRRALLQQCGSRHAHENIESVGQKEYGRFEIYLHTVANELIEEAIENDCSHIVFEDLTHIRENIPEATWQHVWAFRRLYEYVEYKAKENGVEAVQVDPRNTSKRCLTCGFTHDDNRNGESFKCQQCGYENHADYNASKNIGLQYLRRRQNADDGGAPVDVRLNRGTLNVSGEYAHPASTEALEHHHHHH	not soluble
MAIALVTGGSRGIGRATALLLAQEGYTVAVNYQQNLHAAQEVMNLITQAGGKAFVLQADISDENQVVAMFTAIDQHDEPLAALVNNAGILFTQCTVENLTAERINRVLSTNVTGYFLCCREAVKRMALKNGGSGGAIVNVSSVASRLGSPGEYVDYAASKGAIDTLTTGLSLEVAAQGIRVNCVRPGFIYTEMHASGGEPGRVDRVKSNIPMQRGGQAEEVAQAIVWLLSDKASYVTGSFIDLAGGK	not soluble
MAIESGYILTTPCKNEEKSLPELAESIINQTITPKLWLIINDNSTDNSAKILRDIETKYNWIRVVTSEGQKRDLSFHYAEVVRYGLSLSLEISSAEKIPVEYIGLIDADMILEKNFFEKMIDRFEQDPNLGVASGSTAYFEAENLVTEKGRDNLPIGGLRVWRRECLIETGGFPLSYSADSVSNVLALLHGWETKKFEDIIGIQTRRTGSAEGLWKGYITKGESDYYRDYHPVYVLSKFIKYSFTHPFYIGIAYMEGYINGIVKIKKKICIPEVRRYYRKKHLEIGRYYAGKFKFKLLEHHHHHH	not soluble
MAIKDLFNNFFLMDDEEEVESPEERQRRVVQNEENETNNVQQNQPQQSERSYSNQSKLKTVPQKKTTRNYNSEERNVRMNQPPSKSNGKNVVTMNQTSQSYSGYESSKMCLFEPRVFSDTQDIADELKNRRATLVNLQRIDKISAKRIIDFLSGTVYAIGGDIQRVGTDIFLCTPDNVEVAGSITDHIEQMESQHYELEHHHHHH	not soluble
MAIQGSRTEGLGGYTFDDLAVVMGTYNEEEAIGTVLDDIATVTDGRAEVICVDGSSDRTPEIARDHGATVIEQEPQGYGVAVREAVLTPDRPVVVTTDCDDTYPMERLPDFLAEINDGADVVSGDRLYYGAEQMPAMNKLGNELFALLASVLMGKRVHDTTTGMRAYRREVLQKIVWTENTGLSAELLMRPLMRGYDVRERPIEYDERKGETKLDPFSGGAAIAKSIVRVALEERFRLEHHHHHH	soluble
MAIRKLLLLLKPIDPYPFLQTEGASLIKNPQVLINYLPQMRLISILNPDHVLQYLESRCKVHKNAIKFCQEILSKKPVEWKPISRNDLSHPIRDVDMVITVGGDGTLLHASHFIDDSVPVLGVNSDPTQAHEVEELSDQFDASRSTGHLCAATVENFEQVLDDILFGRVVPAKVSRISLKLNSETLLSHALNDILIAQPCPAAVSRFSFKIKNKDGASSPKTVNCRSSGLRICTAAGSTAAMQSAGGFVMPMLSRDLQFMVREPISPGSTASLMHSTFKPDQFMDVNWYSDHGTIYIDGCQVQHSVQLGDTIEISSDAPVLNVFLSHGISQIRSRY	soluble
MAISKLFFAYFHKNEKPFKMLCLPLLPLKNVINQMSFESVWRLSKTSRKMYEKIKNVKKSIYKIVIDNRFEYNIIYPRFKTRILRFEKKSDFVSVYNEMGTNKEITASVYLKFSVDFWIELFYKLDKRGPGKLRSSVYKLNHLKKRLKYLNRFDELFSIKHVDLVIDKYKLFGDSISHPLFQKCDYMEIVGNTSYISNNEMNFVLNNFKLKNGLLTNCLIAEDFDVTAMQQIPRLVIFNAQHITVEDLIKMDCETIKLCYHQFKPRHINQLLHHWLSGEMPKLRRFRLNFYCDTTWIGVVLSGIEHSKWDGQRRAKFFRDGIESIDCGNGFDIERNDGLLATFSSLEDSIDFVVWGNISAL	not soluble
MAKEFGRPQRVAQEMQKEIALILQREIKDPRLGMMTTVSGVEMSRDLAYAKVYVTFLNDKDEDAVKAGIKALQEASGFIRSLLGKAMRLRIVPELTFFYDNSLVEGMRMSNLVTSVVKHDEERRVNPDDSKEDLEHHHHHH	soluble
MAKEKKRGFFSWLGFGQKEQTPEKETEVQNEQPVVEEIVQAQEPVKASEQAVEEQPQAHTEAEAETFAADVVEVTEQVAESEKAQPEAEVVAQPEPVVEETPEPVAIEREELPLPEDVNAEAVSPEEWQAEAETVEIVEAAEEEAAKEEITDEELETALAAEAAEEAVMVVPPAEEEQPVEEIAQEQEKPTKEGFFARLKRSLLKTKENLGSGFISLFRGKKIDDDLFEELEEQLLIADVGVETTRKIITNLTEGASRKQLRDAEALYGLLKEEMGEILAKVDEPLNVEGKAPFVILMVGVNGVGKTTTIGKLARQFEQQGKSVMLAAGDTFRAAAVEQLQVWGQRNNIPVIAQHTGADSASVIFDAIQAAKARNIDVLIADTAGRLQNKSHLMEELKKIVRVMKKLDVEAPHEVMLTIDASTGQNAVSQAKLFHEAVGLTGITLTKLDGTAKGGVIFSVADQFGIPIRYIGVGERIEDLRPFKADDFIEALFARED	soluble
MAKEWFTVKECLGLPGFPGSEPAVRERLYKYSEGKEGVRRKRVKSKAEEFHISVFPLYVHRYLDDSGEEPTPEPISLQEAEPEDIWEMMFRLLTPEQRKQVTGRFKVRGMKAVFPFLFDDTPPR	not soluble
